This note sets out measurements from patent publication US20160082083A1 (NATIONAL RESEARCH COUNCIL OF CANADA, published 2016).

The target in the assay is cathepsin B (human, UniProt P07858 80-333). The assay can be described thus: cell-based or functional assay.

B1: IGFBP-2 (from R&D systems) (other)
chain: MLPRVGCPALPLPPPPLLPLLPLLLLLLGASGGGGGARAEVLFRCPPCTPERLAACGPPPVAPPAAVAAVAGGARMPCAELVREPGCGCCSVCARLEGEACGVYTPRCGQGLRCYPHPGSELPLQALVMGEGTCEKRRDAEYGASPEQVADNGDDHSEGGLVENHVDSTMNMLGGGGSAGRKPLKSGMKELAVFREKVTEQHRQMGKGGKHHLGLEEPKKLRPPPARTPCQQELDQVLERISTMRLPDERGPLEHLYSLHIPNCDKHGLYNLKQCKMSLNGQRGECWCVNPNTGKLIQGAPTIRGDPECHLFYNEQQEARGVHTQRMQ
As for B1, the “inhibition of intracellular cathepsin B activity (Magic Red) in U87MG cells, overnight incubation with 20 nM protein” value was about 50%.

B2: IGFBP-6 (from R&D systems) (other)
chain: RCPGCGQGVQAGCPGGCVEEEDGGSPAEGCAEAEGCLRREGQECGVYTPNCAPGLQCHPPKDDEAPLRALLLGRGRCLPARAPAVAEENPKESKPQAGTARPQDVNRRDQQRNPGTSTTPSQPNSAGVQDTEMGPCRRHLDSVLQQLQTEVYRGAQTLYVPNCDHRGFYRKRQCRSSQGQRRGPCWCVDRMGKSLPGSPDGNGSSSCPTGSSG
On to B2, for which the “inhibition of secreted cathepsin B activity in U87MG CM, overnight incubation with 20 nM protein” value was about 60%.

B3: IGFBP-2 full-length protein (aas 1-328), produced at BRI-NRC (other)
chain: MLPRVGCPALPLPPPPLLPLLPLLLLLLGASGGGGGARAEVLFRCPPCTPERLAACGPPPVAPPAAVAAVAGGARMPCAELVREPGCGCCSVCARLEGEACGVYTPRCGQGLRCYPHPGSELPLQALVMGEGTCEKRRDAEYGASPEQVADNGDDHSEGGLVENHVDSTMNMLGGGGSAGRKPLKSGMKELAVFREKVTEQHRQMGKGGKHHLGLEEPKKLRPPPARTPCQQELDQVLERISTMRLPDERGPLEHLYSLHIPNCDKHGLYNLKQCKMSLNGQRGECWCVNPNTGKLIQGAPTIRGDPECHLFYNEQQEARGVHTQRMQGSGWSHPQFEKTGHHHHHHHHGGQ
Consider B3, for which the “inhibition of intracellular cathepsin B activity (Magic Red) in U87MG cells, overnight incubation with 20 nM protein” value was about 50% and the “inhibition of secreted cathepsin B activity in U87MG CM, overnight incubation with 20 nM protein” value was about 60%.

B4: IGFBP-2 C-terminal fragment (aas 207-328 of SEQ ID NO: 3) (other)
chain: IASKGGKHHLGLEEPKKLRPPPARTPCQQELDQVLERISTMRLPDERGPLEHLYSLHIPNCDKHGLYNLKQCKMSLNGQRGECWCVNPNTGKLIQGAPTIRGDPECHLFYNEQQEARGVHTQRMQDPWSHPQFEKTGHHHHHHHHGGQ
Turning to B4, the “inhibition of intracellular cathepsin B activity (Magic Red) in U87MG cells, overnight incubation with 20 nM protein” value was about 50% and the “inhibition of secreted cathepsin B activity in U87MG CM, overnight incubation with 20 nM protein” value is about 70%.

B5: CIBP6 (aas 151-240) (other)
chain: IARNSAGVQDTEMGPCRRHLDSVLQQLQTEVYRGAQTLYVPNCDHRGFYRKRQCRSSQGQRRGPCWCVDRMGKSLPGSPDGNGSSSCPTGSSGSSTGHHHHHHHHG
As for B5, the “inhibition of secreted cathepsin B activity in U87MG CM, overnight incubation with 20 nM protein” value is about 60%.

B6: IGFBP-5 C-terminal fragment (aas 177-272) (other)
chain: IASIISAPEMRQESEQGPCRRHMEASLQELKASPRMVPRAVYLPNCDRKGFYKRKQCKPSRGRKRGICWCVDKYGMKLPGMEYVDGDFQCHTFDSSNVEDPWSHPQFEKTGHHHHHHHHGGQ
With B6, the “inhibition of intracellular cathepsin B activity (Magic Red) in U87MG cells, overnight incubation with 20 nM protein” value was about 50%.
